Test results: article PMC8263589, “The role of membrane destabilisation and protein dynamics in BAM catalysed OMP folding” (Nature Communications, 2021)

Experiments:
[1] = molecular target: BamA, as the subunit of WT BAM (Escherichia coli K-12); test: cryo-EM structure; purified BAM (WT or BAM-LL) mixed with Fab1 in DDM micelles, pH 8.0, 150 mM NaCl; WT BAM with a 2-fold molar excess of Fab1, complex isolated on Superdex 200; BAM-LL and Fab1 mixed 1:1; conditions: both partners purified
[2] = molecular target: WT BAM complex (BamABCDE-His6) (Escherichia coli K-12); test: as above; conditions: both partners purified

B1: Fab1, anti-BamA monoclonal antibody Fab fragment (Fab, V domains shown)
VH: EVQLVESGGGLVQPGRSLKLSCVASRFTFSNYGMNWIRQTPGKGLEWVAYIGSTSSHIYYAETVKGRFTISRDNAKNTLYLQMTGLRSEDTALYYCVGHVRKLGAFFDYWGQGAMVTVSS
VL: DIQMTQSPASLSASLGETVTIECRASEDIHSRLAWYQQKPGKSPQLLIYNANSLHTGVPSRFSGSGSGTQFSLKINSLQSEDVASYFCLQYYNYPPYTFGAGAKLELR
notes: heavy chain of Fab1 in the crystal structure deposited here (PDB 7BM5); light chain of Fab1 in the crystal structure deposited here (PDB 7BM5); also called bactericidal Fab fragment; Fab of MAB1; source: E. coli, purified (Protein G, SP Sepharose, Superdex 75)
Q: What does the source list for B1?
A: binding result [1]: binds; binding result [2]: binds
